Experiment: yeast display, Sf9 membrane polyspecificity reagent, FACS + sequencing; frameworks hold sequencing errors
How it was run: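 A synthetic nanobody library was expressed on Saccharomyces cerevisiae BJ5465 by galactose induction for 36–48 hours. The library was stained for 1 hour at 4 °C with 10% biotinylated, detergent-solubilized Sf9 membrane reagent and enriched with streptavidin microbeads before FACS. Low and high (top ~1%) gates were set on anti-HA fluorescence for expression and streptavidin fluorescence for reagent binding, and each polyreactivity label reflects the gate of origin.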

| Sequence | polyreactivity (PSR sort gate) |
| --- | --- |
| QVQLVESGGGLVQAGGSLRLSCAASGSIFVLYAMGLYRQAPGTERELVAAITTGGGTNYADSVKGRFTISRDNAKNTVYLQINSLKPEDTAVYYCAADTGWYDDWTHDYWGQGTQVTVSS | low polyreactivity |
| QVQLVESGGGLVQAGGSLRLSCAASGSIFVLYAMGWSRQAPGKERELVAAITTGGGTNYADSVKGRFTISRDNAKNTVYLQMNSLKPEDTAVYYCAAADSTWFDWGNYWYYYWGQGTQVTVSS | low polyreactivity |
| QVQLVESGGGLVQAGGSLRLSCAASGSIFVNNAMGWYRQAHGKERELVAAISGSGSSTHYAHSVKGRFTISRDNAKNTVYLQMNSLKPEDTAVYYCNRGRRDLDFNYWGQGTQVTVSS | low polyreactivity |
| QVQLVESGGGLVQAGGSLRLSCAASGSIFVNYAMGWSRQAPGKERELVAAISRDGGRTYYADSVKGRFTISRDNAKNTVYLQMNSLKPEDTAVYYCNAVIPSTAYYRYGYWGQGTQVTVSS | high polyreactivity |
| QVQLVESGGGLVQAGGSLRLSCAASGSIFVNYAMGWYRQAPGKERELVAAISWRGGITYADSVKGRFTISRDNAKNTVYLQLNSLKPEDTAVYYCARRGYGAGPSYRLGDYWGQGTQVTVSS | low polyreactivity |
| QVQLVESGGGLVQAGGSLRLSCAASGSIFVNYAMGWYRQAPGKERELVAAITDGGRTYYADSVKGRFTISRDNAKNTVYLQMNSLKPEDTAVYYCAVDGIRYWGSRDESGYDYWGQGTQVTVSS | low polyreactivity |
| QVQLVESGGGLVQAGGSLRLSCAASGSIFVPNAMGRYRQAPGKERELVAAITSGGSTYYADSVKGRFTISRDNAKNTVYLQMNSLKPEDTAVYYCAADIGSQYFGHYDYWGQGTQVTVSS | high polyreactivity |
| QVQLVESGGGLVQAGGSLRLSCAASGSIFVPYAMGWYRQAPGKERELVAAISYSGGTTYADSVKGRFTISRDNAKNTVYLQMNRVKPEDTAVYYCAARYWRRWRQSVSLDYWGQGSQVTVSS | high polyreactivity |
| QVQLVESGGGLVQAGGSLRLSCAASGSIFVPYAMGWYRQAPGKERELVAAITRSSGSTYYADSVKGRFTISRDNAKNTVYLQMNSLKPEDTAVYYCAADFLLEFDYWGQGTQVTVSS | low polyreactivity |
| QVQLVESGGGLVQAGGSLRLSCAASGSIFVPYAMGWYRQAPWKERELVAAISRGGDTNYADSVKGRFTISRDKAKNTVYLQMNSLIPEDTAVSYCNRARHQYSRWHGGYYYWGQCTQVTVSS | low polyreactivity |
| QVQLVESGGGLVQAGGSLRLSCAASGSIFVPYAMGWYRQEPGKERELVAAISRRGGRTNYADSVKGRFTISRDNAKNTVYLQMNSLKPEDTAVYYCADGWRGVYYTRYDSWGQGTQVTVSS | high polyreactivity |
| QVQLVESGGGLVQAGGSLRLSCAASGSIFVPYARGWYRQAPGKERELVAAISNGDSTYYADSVKGRFTISRDNAKNTVYLQMNSLKPEDTAVYYCAADAVKASVSYIVPYAAYDYWGQGTQVTVSS | low polyreactivity |
| QVQLVESGGGLVQAGGSLRLSCAASGSIFVPYDMGWYRQAPGKERELVAVISTDDGTYYADSVKGRFTISRDNAKNTVYLQMNSLKPEDTAVYYCAADRWYREYDYWGQGTQVTVSS | low polyreactivity |
| QVQLVESGGGLVQAGGSLRLSCAASGSIFVQYAMGWCRQAPGKDRELVAAISDSGGSTYYADSVKGRFTISRDNAKNTVYVQMNSLKPEDTAVYYCAAVSTNSYSHRFGWGQGTQVTVSS | low polyreactivity |
| QVQLVESGGGLVQAGGSLRLSCAASGSIFVRNAMGWYRQAPGKERELVAAISGSGGRTYYADSVKGRFTISRDIAKNTVYLQMNSLKPEDTAVYYCARVPSGQLEYDYWGQGTQVTVSS | high polyreactivity |
| QVQLVESGGGLVQAGGSLRLSCAASGSIFVRNGMGWYRQAPGKERELVASITSGTITYYADSVKGRFTISRDNAKNTVYLQMNSLKPEDTAVYYCAAYQYPADFKLYYYWGQGTQVTVSS | high polyreactivity |
| QVQLVESGGGLVQAGGSLRLSCAASGSIFVSEYVMGWYRQAPGKERELVARIRWSSGSTYYADSVKGRFTISRDNAKNTVYLQMNSLKPEDTAVYYCAKATSSFYHYRYDYWGQGTQVTVSS | low polyreactivity |
| QVQLVESGGGLVQAGGSLRLSCAASGSIFVSEYVMGWYRQAPGKERELVARIRWSSGSTYYADSVKGRFTISRDNAKNTVYLQMNSLKPEDTAVYYCNKDYYYVIGWTYHRSYHYDYWGQGTQVTVSS | low polyreactivity |
| QVQLVESGGGLVQAGGSLRLSCAASGSIFVSYAMGWYRQAPGKDRELVAAITSAGTTYYADSVKGRFTISRDNAKNTVYLQMNSLNPEDTAVYYCNTDASFKRTRVSPETEYGYWGQGTQVTVSS | low polyreactivity |
| QVQLVESGGGLVQAGGSLRLSCAASGSIFVSYAMGWYRQAPGKERELVAAITRGGSTNYADSVKGRFTISRDNAKNTVYLQMNSLKPEDTAVYYCAAAYRRGGPPLDYWGQGTQVTVSS | low polyreactivity |
| QVQLVESGGGLVQAGGSLRLSCAASGSIFVSYAMGWYRQAPGKERELVAAITSAGTTYYADSVKGRFTISRDNAKNTVYLQMNSLKQEDTAVYYCNTDASFKRTRVSPETEYGYWGQGTQVTVSS | low polyreactivity |
| QVQLVESGGGLVQAGGSLRLSCAASGSIFVSYAMGWYRQAPGKERELVAAITVSGGSTYYADSVKGRFTISRDNAKNTVYLQMNSLKPEDTAVYYCAADSWDDWVVEFYYWGQGTQVTVSS | low polyreactivity |

| Sequence | polyreactivity (PSR sort gate) |
| --- | --- |
| QVQLVESGGGLVQAGGSLRLSCAASGSIFVSYAMGWYRQAPGKERELVAAITVSGGSTYYADSVKGRFTISRDNAKNTVYLQMNSMKPEDTAVYYCAADSWDDWVVEFYYWGQGTQVTVSS | low polyreactivity |
| QVQLVESGGGLVQAGGSLRLSCAASGSIFVTNAMAWYSQAPGKERELVAAISWRGGSTYYADSVKGRFTISRDNAKNTVYLQMNSLKPEDTAVYYCNTYHPYWGSGFDYWGQGTEVTVSS | low polyreactivity |
| QVQLVESGGGLVQAGGSLRLSCAASGSIFVTNAMGWYRQAPGKERELVAAISGGADSTYADSVKGRFTISRDNAKNTVYFQMNSLKPEDTAVYYCAAKVRGWHYYYWGQGTQVTVSS | low polyreactivity |
| QVQLVESGGGLVQAGGSLRLSCAASGSIFVTNAMGWYRQAPGKERELVAAISGGADSTYADSVKGRFTISRDNAKNTVYLQMNSLKPEDTAVYYCAAKVRGWHYYYCGQGTQVTVSS | low polyreactivity |
| QVQLVESGGGLVQAGGSLRLSCAASGSIFVTNAMGWYRQAPGKERELVAAISVSGGSTYYADSVKGRFTISRDKAKNTVYLQMNSLKPEDTAVYYCNTVRSPPGHDYWGLGTQVTVSS | low polyreactivity |
| QVQLVESGGGLVQAGGSLRLSCAASGSIFVTYAMGWYRQAPGKERELVAAINYSGGSTYYADSVKGRFTISRDNAKNTVYLQMNSVKPEDTAVYYCAATTRYYSYGYWGQGTQVTVSS | low polyreactivity |
| QVQLVESGGGLVQAGGSLRLSCAASGSIFVTYAMGWYRQAPGKERELVASITLSGGSTYYADSVKGRFTISRDNAKNTVYFQKNSLKPEDTEVYYCNAEGTSWTSTRFDYWGQGTQVTVSS | high polyreactivity |
| QVQLVESGGGLVQAGGSLRLSCAASGSIFVVNAMGWYRQAPGKERELVAAIRLSGGSTYYADSVKGRFTISRDNAKNTVYLQMNSLKPEDTAVYDCAARYRELRTEYYYWGQGTQVTVSS | high polyreactivity |
| QVQLVESGGGLVQAGGSLRLSCAASGSIFVVYAMGWSREGPGKERELVAAISWGIGSTYYADSVKGRFTISRDNAKNTVYLQPNSLKPEDTAVYYCAADTDIVLYDYWGQGTQVTVSS | low polyreactivity |
| QVQLVESGGGLVQAGGSLRLSCAASGSIFVWYDLGWSRQAPGKERELVATISLSGVSTYYADSVKGRFTISRDTAKNTVYLQMISLKPEDTAVYYCAADFVEQGVDDFWGQGSQVTVSS | low polyreactivity |
| QVQLVESGGGLVQAGGSLRLSCAASGSIFVYNAMGWYRKATGKERELVAGITFIGGSTYYADSVKGRFTISRDNAKNTVYLQMNSLKPEDTAVYYCNADVAPGIFYGYDSWGQGTQVTVSS | low polyreactivity |
| QVQLVESGGGLVQAGGSLRLSCAASGSIFVYNAMGWYRQAPGKEREFVAAISWSVGRTYYADSVKGRFTFSRDNEKNTVYLQMNSLKPEDNAVYYCNAEFVAWYYYEEHDGDYWGQGTQVTVSS | high polyreactivity |
| QVQLVESGGGLVQAGGSLRLSCAASGSIFVYNAMGWYRQAPGKERELVAAIDTVGSTNYADSVKGRFTISRDNAKNTVYLQMNSLNPEDSAVYYCAVVTPYWSFYEQVIPSNYWGQGTQVSVSS | low polyreactivity |
| QVQLVESGGGLVQAGGSLRLSCAASGSIFVYNAMGWYRQAPGKERELVAAISSTGGSTYYADSVKGRFTISRDNAKNTVYLQMNSLKPEDTAVYYCARQGRYTRGDYWGQGTQVTVSS | high polyreactivity |
| QVQLVESGGGLVQAGGSLRLSCAASGSIFVYNAMGWYRQAPGKERELVARITGRGGRTYYADSVKGRFTISRDNAKNTVYLQMNSLKPEDTAVYYCAAAKYGDYRGSPYKYGYWGQGTQVTVSS | high polyreactivity |
| QVQLVESGGGLVQAGGSLRLSCAASGSIFVYYAMGWYRQAPGKERELVAAIDVSDGGTYYAESVKGRFTISRDNAKNTVYLQMNSLKPEVTAVYYCAADQGIDVPYIGYDYWGQGTQVTVSS | high polyreactivity |
| QVQLVESGGGLVQAGGSLRLSCAASGSIFVYYAMGWYRQAPGKERELVAGISRTGGRTYYADSVKGRFTISRDNAKITVYLQMNSLKPEDTAVYYCAAVSYYKSYGEFDYWGQGTQVTVSS | high polyreactivity |
| QVQLVESGGGLVQAGGSLRLSCAASGSIFVYYAMGWYRQAPGKERELVARIRIGGSTNYADSVKGRFTISRDNAKNTVYLQMNSLKPEDTAVYYCIKYSVLSRQRYSHPVNYDSWGQGTQVTVSS | high polyreactivity |
| QVQLVESGGGLVQAGGSLRLSCAASGSIFVYYVMGWYRQAPGKERELVAAISSGGRTYYADSVKGRFTISRDNAKNTVYLQMNSLKPEDTAVYYCAAVWYWTQDYDYWGQGTQVTVSS | low polyreactivity |
| QVQLVESGGGLVQAGGSLRLSCAASGSIFWAYTMGWYRQAPGKERELVAAISASGGSTYYADSVKGRFTISRDNAKNTVYFQMNSLKPEDTAVYYCAAVYDLGYYGPIWAIVLDDYWGQGTQVTVSS | low polyreactivity |
| QVQLVESGGGLVQAGGSLRLSCAASGSIFWFNAMGWYRQAPGKERELVAAISTGGGTNYADSVKGRFTISRDNAKNTLYLKMNSLKPEDTAVYYCATYKVSRYISYDYWGQGPQVTVSS | low polyreactivity |

Source: the nanobody polyreactivity screen of Harvey et al. (2022)
